Source: patent US20190330347A1 (published 2019)

Target: biotin-labeled PD-1 antigen (UniProt Q15116 25-167, biotin-labeled (site not stated))
Experiment: BLI (Fortebio)

biotin-labeled PD-1 antigen, sequence (Q15116 25-167): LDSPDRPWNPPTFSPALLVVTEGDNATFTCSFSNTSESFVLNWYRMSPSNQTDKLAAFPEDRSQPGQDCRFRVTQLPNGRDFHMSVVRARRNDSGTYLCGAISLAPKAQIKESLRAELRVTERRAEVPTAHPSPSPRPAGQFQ

- Kd: 0.103 nM
B1: humanized H8L2 antibody (IgG-like antibody H8L2 against PD-1) (antibody)
heavy: EVQLVQSGGGLVQPGGSLKLSCAASGFTFSSYGMSWVRQAPGKGLDWVATISGGGRDTYYPDSVKGRFTISRDNSKNNLYLQMNSLRAEDTALYYCARQKGEAWFAYWGQGTLVTVSSASTKGPSVFPLAPCSRSTSESTAALGCLVKDYFPEPVTVSWNSGALTSGVHTFPAVLQSSGLYSLSSVVTVPSSSLGTKTYTCNVDHKPSNTKVDKRVESKYGPPCPPCPAPEFLGGPSVFLFPPKPKDTLMITRTPEVTCVVVDVSQEDPEVQFNWYVDGVEVHNAKTKPREEQFNSTYRVVSVLTPLHQDWLNGKEYKCKVSNKGLPSSIEKTISKAKGQPREPQVYTLPPSQEEMTKNQVSLTCLVKGFYPSDIAVEWESNGQPENNYKTTPPVLDSDGSFFLYSRLTVDKSRWQEGNVFSCSVMHEALHAHYTQKSLSLSLGK
light: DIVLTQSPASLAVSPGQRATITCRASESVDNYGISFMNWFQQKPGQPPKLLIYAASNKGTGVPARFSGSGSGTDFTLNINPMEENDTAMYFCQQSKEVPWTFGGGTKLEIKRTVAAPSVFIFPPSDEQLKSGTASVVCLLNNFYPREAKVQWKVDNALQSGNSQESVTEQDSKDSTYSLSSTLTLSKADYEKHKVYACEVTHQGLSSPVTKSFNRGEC
